{"source": "patent US20170173114A1", "about": "“METHODS AND COMPOSITIONS FOR INDUCTION OF UCP1 EXPRESSION” (Joslin Diabetes Center, Inc., priority 2014, published 2017)", "type_in_all_cases": "cell-based, murine", "key": {"[1]": {"system": "UCP1", "assay": "UCP1 mRNA expression (Q-RT-PCR) in WT-1 brown preadipocytes", "details": "for expression of UCP1: 200 ng/mL with insulin and T3, three days", "protocol": "(§1) Total RNA was isolated with QIAzol lysis reagent (Qiagen, Valencia, Calif.) and purified by RNeasy Mini columns (Qiagen) following the manufacture's instructions. cDNA was prepared from total RNA using the Advantage RT-PCR kit (BD Biosciences, Palo Alto, Calif.) according to manufacturer's instructions. Diluted cDNA was used in a PCR reaction with SYBR Green Master Mix (Applied Biosystems, Foster City, Calif.) and primers specifically designed for detection of the gene of interest. PCR reactions were run in duplicate for each sample and quantitated in the ABI Sequence Detection System (Applied Biosystems). Data were expressed as arbitrary units after normalization to levels of expression of internal controls for each sample. Sequences of primers for specific genes are each obtained from the published literature or designed using publically available gene sequence databases. Unless otherwise indicated, gene expression data described in the examples below was obtained using QPCR.\nThe effect of FGF6 on differentiation of WT-1 murine brown preadipocytes was also examined. WT-1 cells can be induced to undergo brown adipocyte differentiation, characterized by lipid accumulation and expression of adipogenic and brown fat markers, as described above (Klein et al. (1999) J Biol Chem 274:34795; Tseng et al. (2005) Nat Cell Biol 7:601). WT-1 cells were treated with FGF6 in growth media (DMEM+10% FBS), a vehicle control (“control” or “C” referred to in FIGS. 3A-D), or induction media (“induction” or “I” referred to in FIGS. 3A-D) as described above for seven days. Following the treatment, cells were examined for the color of the culture media in combination with oil Red O staining, expression of adipogenic markers, expression of brown fat markers, immunofluorescent staining of cells with UCP1 and DPAI, and Western blot analysis to determine the presence of UCP1 and β-tubulin. The results are described in FIGS. 3A to 3D.\nUCP1 mRNA expression in brown adipocyte cells was determined at FGF6 concentrations ranging from 0 to 300 ng/ml in the absence of induction cocktail.\nIn order to determine the length of time necessary to induce UCP1 expression upon exposure to of cells to FGF6, an experiment was performed whereby FGF6 was administered to brown preadipocytes at a concentration of 200 ng/ml and UCP1 expression was determined. FGF21 and a control were also used in the time course experiment. FGF21, a member of the endocrine FGF ligands that has been implicated in the browning of white fat (Fisher F. M. et al., Genes Dev. 26:271-281, 2012). […] FGF6 could acutely induce a significant increase of UCP1 expression as early as 4 hours after a 200 ng/ml dose, as described in FIG. 4B. At 24 hours, the fold-induction of UCP1 mRNA by FGF6 reached 700-fold higher than the untreated cells, as described in FIG. 4B.\nTo assess FGF6's role in the regulation of mitochondrial activity, FGF6 was stably expressed in WT-1 brown preadipocytes and 3T3-F442A white preadipocytes. Stable cells were generated by viral infection followed by drug selection.\nFGF2, FGF6 and FGF9 were used at a dosage of 50 ng/mL, 100 ng/mL, 200 ng/mL or 300 ng/mL. FGF21 was used at the dosage of 50 ng/ml and 500 ng/mL. The concentration of BMP7 was 3.3 nM. RNA was isolated and UCP1 and PPARγ expression levels were evaluated by quantitative reverse transcription polymerase chain reaction (Q-RT-PCR) analysis after 24 hours (i.e., 1 day) (FIG. 14A), 2 days (FIG. 14B), 5 days (FIG. 14C) and 7 days (FIG. 14D) of treatment. All experiments were performed triplicate and the data are presented as mean+/−SEM.\nFGF2, FGF6 and FGF9 were used at a dosage of 200 ng/mL. FGF21 was used at a dosage of 500 ng/mL. The concentration of BMP7 was 3.3 nM. mRNA was isolated and UCP1 and PPARγ expression levels were evaluated by quantitative reverse transcription polymerase chain reaction (Q-RT-PCR) analysis after 24 hours (i.e., 1 day), 2 days, 5 days and 7 days of treatment (FIG. 15). […]"}, "[2]": {"system": "PTGS2 (COX2)", "assay": "PTGS2 mRNA / COX2 protein expression in WT-1 brown preadipocytes", "details": "for PTGS2 mRNA expression relative to the control: 200 ng/mL with insulin and T3, three days", "protocol": "as §1\nCells were harvested in lysis buffer (50 mM HEPES, 137 mM NaCl, 1 mM MgCl2, 1 mM CaCl2, 10 mM Na2P2O7, 10 mM NaF, 2 mM EDTA, 10% glycerol, 1% Igepal CA-630, 2 mM vanadate, 10 μg/ml of leupeptin, 10 μg/ml of aprotinin, 2 mM phenylmethylsulfonyl fluoride; pH 7.4). After lysis, lysates were clarified by centrifugation at 12,000×g for 20 min at 4° C., the amount of protein in the supernatants was determined by the Bradford Protein Assay (Bio-Rad Laboratories, Hercules, Calif.). Proteins were directly solubilized in Laemmli sample buffer. Equal amounts of lysates were separated by sodium dodecyl sulfate-polyacrylamide gel electrophoresis and transferred to Immobolin-P membranes. Membranes were blocked overnight at 4° C. and incubated with the indicated antibody for 2 hours at room temperature. Specifically bound primary antibodies were detected with peroxidase-coupled secondary antibody and enhanced chemiluminescence (ECL, Amersham Biosciences, Piscataway, N.J.).\nTo determine if FGF4, FGF5, FGF6, FGF10, FGF16, FGF17, FGF18 or FGF20 induced either UCP1 mRNA or PTGS2 mRNA expression, murine brown preadipocyte WT-1 cells (Tseng et al., Nat. Cell. Biol. (2005) 7(6):601-611) were grown in growth media (DMEM-high glucose+10% FBS) supplemented with FGF4, FGF5, FGF6, FGF10, FGF16, FGF17, FGF18, FGF20 or buffer (control) in combination with insulin (20 nM) and triidothyronine (T3, 1 nM) for three days. All FGFs were used at a dosage of 200 ng/mL. mRNA was isolated and UCP1 and PTGS2 gene expression levels were evaluated by quantitative reverse transcription polymerase chain reaction (Q-RT-PCR) analysis. All experiments were performed triplicate and the data are presented as mean+/−SEM.\nTo determine if FGF1 or FGF10 induce UCP1 mRNA expression or PTGS2 mRNA expression, murine brown preadipocyte WT-1 cells (Tseng et al., Nat. Cell. Biol. (2005) 7(6):601-611) were grown in growth media (DMEM-high glucose+10% FBS) supplemented with FGF1, FGF10 or vehicle (control) in combination with insulin (20 nM) and triidothyronine (T3, 1 nM) for three days. FGF1 and FGF10 were used at a dosage of 50 ng/mL, 100 ng/mL or 300 ng/mL. mRNA was isolated and UCP1 and PTGS2 expression levels were evaluated by quantitative reverse transcription polymerase chain reaction (Q-RT-PCR) analysis. All experiments were performed triplicate and the data are presented as mean+/−SEM.\nTo test the role of specific prostaglandins (PGs) in activating UCP1 expression, WT-1 brown adipocytes were pretreated with PGE2, PGI2 and FGF6 for 24 hours. mRNA expression levels of UCP1, PTGS2, LDHA, PDK1 and PKM2 were then measured."}, "[3]": {"system": "UCP1 and PTGS2", "assay": "UCP1 and PTGS2 mRNA in WT-1 cells undergoing adipocyte differentiation", "details": "after induction media; 200 ng/mL FGF or 3.3 nM BMP7, 2 days", "protocol": "In a separate experiment investigating the ability of FGF proteins to induce UCP1 expression in cells undergoing adipocyte differentiation, WT-1 preadipocyte cells were differentiated by culturing in growth media supplemented with insulin (20 nM) and triiodothyronine (T3, 1 nM) for 3 days, followed by incubation in an induction media (growth medium supplemented 20 nM insulin, 1 nM T3, 0.5 mM isobutyl-methylxanthine, 5 μM dexamethasone) for 2 days. The cell were then exposed to BMP7 (3.3 nM) or 200 ng/mL of FGF2, FGF6 or, FGF9 in growth media supplemented with insulin (20 nM) and triodothyronine (T3, 1 nM) for 2 additional days. Cells were harvested and UCP1 and PTGS2 mRNA expression levels were determined according to the quantitative RT-PCR assay described above. Experiments were performed in triplicate and the data presented as mean+/−SEM."}, "[4]": {"details": "50, 100 or 300 ng/mL with insulin and T3, three days, FGF1 effect at 300 ng/ml"}, "[5]": {"details": "FGF21 50 and 500 ng/mL, BMP7 3.3 nM, with insulin and T3"}, "[6]": {"details": "50 ng/mL and 200 ng/mL with insulin and T3, three days"}}, "data": [{"molecule": "FGF10: fibroblast growth factor 10, keratinocyte growth factor 2 (protein, listed as Homo sapiens) MWKWILTHCASAFPHLPGCCCCCFLLLFLVSSVPVTCQALGQDMVSPEATNSSSSSFSSPSSAGRHVRSYNHLQGDVRWRKLFSFTKYFLKIEKNGKVSGTKKENCPYSILEITSVEIGVVAVKAINSNYYLAMNKKGKLYGSKEFNNDCKLKERIEENGYNTYASFNWQHNGRQMYVALNGKGAPRRGQKTRRKNTSAHFLPMVVHS", "values": [{"measurement": "expression of UCP1", "setting": "[1]", "result": "not induced"}, {"measurement": "UCP1 mRNA expression", "setting": "[1]; [4]", "result": "did not induce expression"}, {"measurement": "PTGS2 mRNA expression", "setting": "[2]; [4]", "result": "did not induce expression"}]}, {"molecule": "BMP7: bone morphogenetic protein 7, rhBMP7 provided by Stryker Regenerative Medicine (protein, UniProt P18075 293-431, looked up) Bone morphogenetic protein 7: STGSKQRSQNRSKTPKNQEALRMANVAENSSSDQRQACKKHELYVSFRDLGWQDWIIAPEGYAAYYCEGECAFPLNSYMNATNHAIVQTLVHFINPETVPKPCCAPTQLNAISVLYFDDSSNVILKKYRNMVVRACGCH", "values": [{"measurement": "PTGS2 mRNA expression in cells undergoing adipocyte differentiation", "setting": "[3]", "result": "minimal levels"}, {"measurement": "UCP1 mRNA expression in cells undergoing adipocyte differentiation", "setting": "[3]", "result": "minimal levels"}, {"measurement": "UCP1 expression level at day 7", "setting": "[1]; [5]", "result": "only minimal amounts"}, {"measurement": "UCP1 expression level at days 1, 2 and 5", "setting": "[1]; [5]", "result": "did not express detectable amounts of UCP1"}]}, {"molecule": "FGF5: fibroblast growth factor 5, recombinant human, R&D Systems (protein, listed as Homo sapiens) MSLSFLLLLFFSHLILSAWAHGEKRLAPKGQPGPAATDRNPRGSSSRQSSSSAMSSSSASSSPAASLGSQGSGLEQSSFQWSPSGRRTGSLYCRVGIGFHLQIYPDGKVNGSHEANMLSVLEIFAVSQGIVGIRGVFSNKFLAMSKKGKLHASAKFTDDCKFRERFQENSYNTYASAIHRTEKTGREWYVALNKRGKAKRGCSPRVKPQHISTHFLPRFKQSEQPELSFTVTVPEKKKPPSPIKPKIPLSAPRKNTNSVKYRLKFRFG", "values": [{"measurement": "expression of UCP1", "setting": "[1]", "result": "not induced"}]}, {"molecule": "FGF17: fibroblast growth factor 17 (protein, listed as Homo sapiens) MGAARLLPNLTLCLQLLILCCQTQGENHPSPNFNQYVRDQGAMTDQLSRRQIREYQLYSRTSGKHVQVTGRRISATAEDGNKFAKLIVETDTFGSRVRIKGAESEKYICMNKRGKLIGKPSGKSKDCVFTEIVLENNYTAFQNARHEGWFMAFTRQGRPRQASRSRQNQREAHFIKRLYQGQLPFPNHAEKQKQFEFVGSAPTRRTKRTRRPQPLT", "values": [{"measurement": "PTGS2 mRNA expression relative to the control", "setting": "[2]", "result": "increased"}]}, {"molecule": "FGF4: fibroblast growth factor 4, recombinant human, R&D Systems (protein, listed as Homo sapiens) MSGPGTAAVALLPAVLLALLAPWAGRGGAAAPTAPNGTLEAELERRWESLVALSLARLPVAAQPKEAAVQSGAGDYLLGIKRLRRLYCNVGIGFHLQALPDGRIGGAHADTRDSLLELSPVERGVVSIFGVASRFFVAMSSKGKLYGSPFFTDECTFKEILLPNNYNAYESYKYPGMFIALSKNGKTKKGNRVSPTMKVTHFLPRL", "values": [{"measurement": "UCP1 mRNA expression", "setting": "[1]; [6]", "result": "high levels of UCP1 mRNA expression"}, {"measurement": "PTGS2 mRNA expression relative to the control", "setting": "[2]", "result": "increased"}]}, {"molecule": "FGF18: fibroblast growth factor 18 (protein, listed as Homo sapiens) MYSAPSACTCLCLHFLLLCFQVQVLVAEENVDFRIHVENQTRARDDVSRKQLRLYQLYSRTSGKHIQVLGRRISARGEDGDKYAQLLVETDTFGSQVRIKGKETEFYLCMNRKGKLVGKPDGTSKECVFIEKVLENNYTALMSAKYSGWYVGFTKKGRPRKGPKTRENQQDVHFMKRYPKGQPELQKPFKYTTVTKRSRRIRPTHPA", "values": [{"measurement": "PTGS2 mRNA expression relative to the control", "setting": "[2]", "result": "increased"}]}, {"molecule": "FGF22: fibroblast growth factor 22 (protein, listed as Homo sapiens) MRRRLWLGLAWLLLARAPDAAGTPSASRGPRSYPHLEGDVRWRRLFSSTHFFLRVDPGGRVQGTRWRHGQDSILEIRSVHVGVVVIKAVSSGFYVAMNRRGRLYGSRLYTVDCRFRERIEENGHNTYASQRWRRRGQPMFLALDRRGGPRPGGRTRRYHLSAHFLPVLVS", "values": [{"measurement": "UCP1 mRNA expression", "setting": "[1]; [6]", "result": "not detectably induced"}]}]}
